Test: soluble on expression in E. coli; label from the status in PepcDB or PDB records

Sequence	soluble on expression in E. coli
MAKIKLPIVTINAKGGAQYVVEGVEAVNALTQLENYPERGIRIKVDGKMTVITEGCLCSAAVTGEVEVDVPEIVCEEVECEPISNILPNPKNPTDPGENSKPEEKAGEK	not soluble
MIDPREPIVTPVPVEELRPTQITVGMREVALKRQMIREQDAKKKTGAFLGKHMVPVVLGPKNRNYVTDHHHLARALLEEGVKDVLVTVISDLSALDKDTFLFVLDNRGWMHPFDESGRRRDYSAIPKTIGELIDDPYRSMAGELRRMGGFAKDTTPFSEFIWADFLRRRIDRNAVAKNFDKAMKEALSLAKGKDADYLPGWCGPTSDAAALEHHHHHH	soluble
MTRPVIVPFFISHQGCPHRCVFCDQERIAGRAGRLPSAAEIHSAVKTFGRGRPVEAAFYGGTFTSLPRNEQERLLAALQPLRHDGSVRSVRLSTRPDALDAETAGFLKSMGVASVELGVQSMDDQVLDVSGRGHSAADTVRAFDVLRSEGIAVGAQLMPGLPGDSRERSLDSLTRILDLKPVSLRIYPTLVVAGTRLAEFWAEGSYTPLTLADAVPLCADMLLACKRAGVPVIRLGLQPTDILERSVLAGPWHPALRQLVEGELWYRLLERLTTGLAAGTVVSVACAPARISDVVGQRRVNLSRLLERRGIVVTGVAGCPTAAPDTLTLTHAGGTVAGSLTD	not soluble
MKGLILAAGRGTRLRPLTHTRPKPAIRVAGRPIIHYAVENLLEAGVREIGVVVSPETERDLKVALEGYPVRYVLQEEPQGLAHAVDVARGFLGESPFVLYLGDNLFQKGIRRFLEAFKPGVSAVIALVRVEDPRQFGVAVLEGNRVVRLLEKPKDPPSDLAVAGVYVFSPEVLEVVRGLKPSARGEYEITDAIQGLIDRGKTVVGVEVEGWWKDTGRHQDLLDANRLLLEELTPKVEGDVVESQLTGRVVVEKGAKVVRSTVIGPAHIGAGAVVEEAFVGPFTSVGPRARVVRSEVEYSLLEEEAVVEEVRLRLQECILGVRAEVKSRDGLPRAHRLILGDLSQVELA	soluble
MGSDKIHHHHHHMMKSVLADAVFGGALMIEFYASEALICPRRVWFRLKGIPEKWPEVAKPRLEKGMKIHEVLGKVLKDRFDVELEKSVIIRFPKLGMEIHGKIDVYKEFPIEIKGKSYIPSSPIDYHLAQLNLYLRGVNAEYGYLYYVKLTDDPWRAISDIVFDSFPLIKGNGLKIFEVPYDEVLFKETVKYFYEIKLYLENDELPPAWKGPHCKFCPYNYICLSGEEF	not soluble
MTPDPLAPLDLAFWNIESAEHPMHLGALGVFEADSPTAGALAADLLAARAPAVPGLRMRIRDTWQPPMALRRPFAFGGATREPDPRFDPLDHVRLHAPATDFHARAGRLMERPLERGRPPWEAHVLPGADGGSFAVLFKFHHALADGLRALTLAAGVLDPMDLPAPRPRPEQPPRGLLPDVRALPDRLRGALSDAGRALDIGAAAALSTLDVRSSPALTAASSGTRRTAGVSVDLDDVHHVRKTTGGTVNDVLIAVVAGALRRWLDERGDGSEGVAPRALIPVSRRRPRSAHPQGNRLSGYLMRLPVGDPDPLARLGTVRAAMDRNKDAGPGRGAGAVALLADHVPALGHRLGGPLVSGAARLWFDLLVTSVPLPSLGLRLGGHPLTEVYPLAPLARGHSLAVAVSTYRGRVHYGLLADAKAVPDLDRLAVAVAEEVETLLTACRPLEHHHHHH	soluble
MGSDKIHHHHHHMTERELEILALLKQDPLIPQQELADRLGISRSAVAGHIMNLTNKGVIRGKGYILAEAKYAMVIGGANMDILGRPASSLRVGDSNPGSVSCSPGGVGRNIAENLARLGSDTRLMTAVGKDAYGQQIVEHCQRAGIDMKPSLQLSDGVTSTYLSVLDGDSDMHVAINDMAILERLGVEQLKSQQEMLKRASLAIIDANLSEAALAYLLSNFADIPLFVDTVSCAKAEKIKPYLGAVHTLKPNLKEAEQLSGISIANYGELPVLANWFHEQGVKRVFLSLGIDGVFYSDGEEQAHIPAIPVEMVNANGAGDAFLAGLAHGFMQGWSTRQSTEFAMAAAVVALSDLATINPNMSEISVNRVIKESLC	not soluble
MASKGAARVRKKEIVKVVHGALLRTNIKAQMASAAPPLGPQLGQRGLNVANFCKEFNKETGHFKQGVPLPTRITVKPDRTYDLEICTPTTTWLLKQAAGIGRGKASKDEIVGKLTVKHLYEIAKIKSRDKALQHVPLEQICRMLIKTCRTLGIDVQYHDLDPVELKEFLVARKEKVDAQLKDLADKKAAKMLRTT	not soluble
MGSDKIHHHHHHCKPSKDETSSLKTADRKPLVTNLGNNVILPRYVALNTSVNAFDSEVQIFTAAPTIENLTSLRIKFYQAYIDWEYVACFEFGPAAASTVNLGTKTVNAFPADTAVIKNKIVQGVTAIPPTNSAMYSGFPAIDYLLFAKSLTAQQIVDSFTVSSTAVKRCNYLKTVSSDLKARINTTYTNWTASGANFISLYTNSTGIDLGSATSQTVNMLVADVENIKNFKLGIPLNIIQNVVVGDGSTVNPFKCEGYHSDSSLVLAKASIESLRKLYLGIGADGTDGEGFDNYLEAIDRSGLNVQIKNQIALLQAKLDAIPAPISIAIKNPAGKQAVNEAYTETLHLLVLLKVDMASAIGVMISYGDTDGD	not soluble
MLEESKNALRVFITGNPGVGKTTILLFLINKLSENNYKVAGFYCPEVRENGRRIGFRIVDITTNEGDWLAKENAPGRVKIGKYTVLEDSAKRITEITLSNINKADVLAIDEIGPMELKIPTIKKLIETILNNQKPLIAVLHRTQKPMGGRIYVITVENRDSIKYEILNYILSSLD	soluble
GSSGSSGHESETTTSLVLERSLNRVHLLGRVGQDPVLRQVEGKNPVTIFSLATNEMWRSGDSEVYQLGDVSQKTTWHRISVFRPGLRDVAYQYVKKGSRIYLEGKIDYGEYMDKNNVRRQATTIIADNIIFLSDQTKEKE	soluble
MSLAEKIKVLIVDDQVTSRLLLGDALQQLGFKQITAAGDGEQGMKIMAQNPHHLVISDFNMPKMDGLGLLQAVRANPATKKAAFIILTAQGDRALVQKAAALGANNVLAKPFTIEKMKAAIEAVFGALK	soluble
MDEQEIQRLVEEVSLQYFGMPFLHKAMFNSRLRTTGGRYLLNTHNIELNYRYYEMYGKEELVGIVKHELCHYHLHITGRGYKHRDKDFRELLKAVDAPRFCKRMINEEKGKKVYMYECMECSLQYVRRRQINTKRYVCGKCKGKLILIKKTSLEHHHHHH	not soluble
MSTPTPKVGFVSLGCPKALVDSERILTQLRMEGYEVVPTYEDADVVVVNTCGFIDSAKAESLEVIGEAIAENGKVIVTGCMGVEEHAIRDVHPSVLAVTGPQQYEQVVTAVHEVVPPKTEHNPLVDLVPPQGVKLTPRHYAYLKISEGCNHSCSFCIIPSMRGKLVSRPVGDVLSEAERLVKAGVKELLVISQDTSAYGVDLKYKTDFWNGQPVKTRMKELCEALSSMGVWVRLHYVYPYPNVDDVIPLMAAGKLLPYLDIPFQHASPKVLKAMKRPAFEDKTLARIKQWREICPELTIRSTFIVGFPGETEEDFQYLLDWLTEAQLDRVGCFQYSPVEGAPANELGLEPVPDEVKQDRWERFMAHQQAISAARLQLKVGKEIEVLIDEVDEQGAVGRSWADAPEIDGNVFVDSDELKPGDKVRVRITDADEYDLWAELVLEHHHHHH	soluble
MGSDKIHHHHHHMDTLIRRYKRLLTATSTTYIRSLMDTINWDNRLIAIRGARGVGKTTLMLQYLKLHYANDSQSALYTSLDSLYFTQHTLSELAEQFYLKGGKCLFLDEVHKYPSWSKEIKNIYDEFPELKIVFTGSSLLQLLNAEADLSRRCISYNMQGLSYREYLKLFHQIHIRPYTLEEILESSDGICNEVNSQCRPLAHFEDYLKHGYYPFYLEGNAEYYTRIENITNLILEIELPQQCGVDISNVRKLKSLLGILSSEVPFMVDITKLSALAELSRTTILAYLQYLDRAKLIHLLYSDNDSIKKLQKPDKIYMENTNLLYALTFKDVNKGTLREVFMVNQLSYLHRVEYCTRSADYTIDSKYTIEVGGKSKDGKQIAGSKKAFIAADDIEYSAGNKIPLWAFGFLY	not soluble
AQKPWEKDAWEIPRESLKLEKKLGAGQFGEVWMATYNKHTKVAVKTMKPGSMSVEAFLAEANVMKTLQHDKLVKLHAVVTKEPIYIITEFMAKGSLLDFLKSDEGSKQPLPKLIDFSAQIAEGMAFIEQRNYIHRDLRAANILVSASLVCKIADFGLARVIEDNEYTAREGAKFPIKWTAPEAINFGSFTIKSDVWSFGILLMEIVTYGRIPYPGMSNPEVIRALERGYRMPRPENCPEELYNIMMRCWKNRPEERPTFEYIQSVLDDFE	soluble
MTRFLEKRHKKKKATNKERILSYKPIHAIEQENSFRSSRCSNQTVEVSAVEDSRSALVGFFESNEPSESVTLKGKRERQVRFADKTNTVGLLKESLEEKLLASKTLISQLKEENCRLKERLNEVKDQLELKEKIALVQQENNDLEAEVLEWKAKFYESESEKERILASRSRPKDGYEIVQESLAQQPGTTSFYDYKFRQLVHKLTRMNAIHSKHNDKEYHKCDIVNESKDRSITFELFIDEEQEEIEYVPVQLNGVSQKLPSYLQDNISFDVQNAPIFFTKIMHSLFSK	soluble
MTDLNKHIKQAQTQRKQLLEESRELHREKLLVQAENRFFLEYLTNKTEEYTEQPEKVWNSYLQKSGEIERRRQESASRYAEQISVLKTALLQKENIQSSLKRKLQAMRDIAILKEKQEKEIQTLQEETKKVQAETASKTREVQAQLLQEKRLLEKQLSEPDRRLLGKRKRRELNMKAQALKLAAKRFIFEYSCGINRENQQFKKELLQLIEQAQKLTATQSHLENRKQQLQQEQWYLESLIQARQRLQGSHNQCLNRQDVPKTTPSLPQGTKSRINPK	not soluble
MGSDKIHHHHHHMTINDLQAFVMVYDLRHISNAAVELHLSQSELSKRMRALENELNIKLLDTHNKRRLQITPAGETFYHHAHKMITDYETMMHDLAPNRPTTFAKLIIGAIPISGQYNIAKKIATFDTQHPDTEIKIIEDEGDQIVKRLLSGELQAAIIRDTQTTQLQPTEFQKQPLLADELKIILPRDHPLATQPVIRIQDLARQKIATLPPGSGVYEPINALFAQQGMTPQFFFESTHIETLLGILNQNNVTFLFKQSVLPFMTEHVVMRSLAIPFISQLNFVYPQRTGNQLLTDLIDYLTVTAQENQQV	not soluble
MGSDKIHHHHHHMKKIAIFCHNFFSNGTVKIALSQAEVLQEAGQDVHLFVFHKEGDFMPPENVTIHYLYDAGQKPSLQEQRQHLKAKVAEAEQSGKFSLFLSNSTDCDVVVSGCDFEPCYYFCHCALKQELLMELKRGPVHFWRRWKKAKALIGKKIITVSNGIADELRATSWLKPQSVQTIYNPFRLEEIRKKTQEVIAEIPNVPYMIHVGRVTRQKRHDILFKALRDMPTAPKLVLLCNRPKKARKLAKKYGVEHRIITPGFQHNPYAWIAKAELMLLSSDFEGLPTVVIESLACGTPVVSTDCPHGPNEILTGHLAQYLVPVRQPALLAQKALECLASPPALDNLEILKAVDSQYIAAQYINLAQ	not soluble
QKKVNVTGAVGMVSAEALEARPVANASQALQGVVPGLNLTVGNNGGALDGTLNMNIRGAGTIGDGSGSSPLVLIDGIEGDLNTVNPNDIESVSVLKDAASASIYGARASFGVILVTTKSGKSG	not soluble

Reference: the DeepSol protein solubility set
